Source: article PMC2691550 (Biochemistry, 2006)

Target: the molecule itself
Assay: crystal structure

B1: Tyrosine phenol-lyase holoenzyme (Citrobacter freundii), in complex with pyridoxal-5′-phosphate and K+ at pH 8.0 (enzyme, UniProt P31013 1-456, looked up)
chain: MNYPAEPFRIKSVETVSMIPRDERLKKMQEAGYNTFLLNSKDIYIDLLTDSGTNAMSDKQWAGMMMGDEAYAGSENFYHLERTVQELFGFKHIVPTHQGRGAENLLSQLAIKPGQYVAGNMYFTTTRYHQEKNGAVFVDIVRDEAHDAGLNIAFKGDIDLKKLQKLIDEKGAENIAYICLAVTVNLAGGQPVSMANMRAVRELTEAHGIKVFYDATRCVENAYFIKEQEQGFENKSIAEIVHEMFSYADGCTMSGKKDCLVNIGGFLCMNDDEMFSSAKELVVVYEGMPSYGGLAGRDMEAMAIGLREAMQYEYIEHRVKQVRYLGDKLKAAGVPIVEPVGGHAVFLDARRFCEHLTQDEFPAQSLAASIYVETGVRSMERGIISAGRNNVTGEHHRPKLETVRLTIPRRVYTYAHMDVVADGIIKLYQHKEDIRGLKFIYEPKQLRFFTARFDYI
modifications: Lys257 Nζ covalently linked to C4′ of pyridoxal-5′-phosphate (internal aldimine)
stoichiometry N: 4
